Experimental findings from paper PMC8573386 (Frontiers in Immunology, 2021) are described below.

For test [1], the target named is T1, EGFR on EGFR-overexpressing tumor cell line A431 (Homo sapiens, A431 cells, UniProt P00533).
T1 construct: epidermal growth factor receptor on the surface of A431 cells; also used as the target of the functional rows on A549 cells; also called EGFR-positive A431 cells; source: endogenous, on A431 cells
The test is described as follows: flow cytometry on cells; EGFR-positive A431 cells incubated 1 h on ice with antibody derivatives 0.05 nM to 1 µM, detected with Alexa Fluor 488 Fab goat antihuman IgG (H+L); apparent binding affinities. The conditions noted are these: one partner purified. (In general: Flow cytometry measures light scatter and fluorescence of single cells or particles in a stream.)

For test [2], the target named is T1, EGFR on EGFR-overexpressing tumor cell …. The test is described as follows: cell-based or functional assay.

B1: 60C03 IgG (antibody)
VH: QVQLRESGPSLVKPSQTLSLTCTASGFSLSDKAVGWVRQAPGKALEWLGGIDTGGSTGYNPGLKSRLSITKDNSKSQVSLSVSSVTTEDSATYYCTTVHQETKKENSCPDGYTSGVECRFRGYTCANDGCWRVCSFTTCSGWMPASDTYRYEYHVDAWGQGLLVTVSS
VL: EAVLNQPSSVSGSLGQRVSITCSGSSSNVGNGYVSWYQLIPGSAPRTLIYGDTSRASGVPDRFSGSRSGNTATLTISSLQAEDEADYFCASAEDSSSNAVFGSGTTLTVL
notes: synthetic bovine IGHV1-7 (VHBUL) scaffold, FR1 to FR3; ultralong CDR-H3 (stalk and knob) of clone 60C03 from immunised cattle; FR4 of the synthetic VH domain; human IgG1 heavy chain constant regions; bovine VL (V30, VLλ30) deduced from PDB entries that share a CDR-identical light chain; human constant lambda region (CLλ); chimeric IgG1; all clones share one fixed light chain and VH scaffold and …
The EC50 is the concentration at which the effect is half-maximal. With B1, the EC50 in test [1] was found to be 3 nM. Besides, in test [2], the “ADCC EC50 killing: NK cell-mediated lysis of EGFR-overexpressing A431 cells, E:T 5:1” value (“ADCC EC50 killing” for short) is 0.0265 nM and the “ADCC mean max killing of A431 cells (normalized to Cetuximab)” value was 103%.

B2: 60E11 IgG (antibody)
VH: QVQLRESGPSLVKPSQTLSLTCTASGFSLSDKAVGWVRQAPGKALEWLGGIDTGGSTGYNPGLKSRLSITKDNSKSQVSLSVSSVTTEDSATYYCTTVHQRTRKTCPDGWRDGSDCPYGHRCGDYDCCGYGCYDGRGTNRFTGVVESYTYEWYVDAWGQGLLVTVSS
VL: EAVLNQPSSVSGSLGQRVSITCSGSSSNVGNGYVSWYQLIPGSAPRTLIYGDTSRASGVPDRFSGSRSGNTATLTISSLQAEDEADYFCASAEDSSSNAVFGSGTTLTVL
notes: synthetic bovine IGHV1-7 (VHBUL) scaffold, FR1 to FR3; ultralong CDR-H3 (stalk and knob) of clone 60E11 from immunised cattle; FR4 of the synthetic VH domain; human IgG1 heavy chain constant regions; as the light chain of m3: bovine VL (V30, VLλ30) deduced from PDB entries that share a CDR-identical light chain; human constant lambda region (CLλ); chimeric IgG1; also called chimeric bovine × …
Consider B2, for which, in test [1], the EC50 was determined as 10.1 nM. Also, in test [2], the “ADCC EC50 killing” value turned out to be 0.0033 nM and the “ADCC mean max killing of A431 cells (normalized to Cetuximab)” value was found to be 96%.

B3: 60H05 IgG (antibody)
VH: QVQLRESGPSLVKPSQTLSLTCTASGFSLSDKAVGWVRQAPGKALEWLGGIDTGGSTGYNPGLKSRLSITKDNSKSQVSLSVSSVTTEDSATYYCTTVHQKTNKLKSCPDGYTSGVECRFRGYTCANDGCWRVCSFTTCSGWMPASDTYRYEYHVDAWGQGLLVTVSS
VL: EAVLNQPSSVSGSLGQRVSITCSGSSSNVGNGYVSWYQLIPGSAPRTLIYGDTSRASGVPDRFSGSRSGNTATLTISSLQAEDEADYFCASAEDSSSNAVFGSGTTLTVL
notes: synthetic bovine IGHV1-7 (VHBUL) scaffold, FR1 to FR3; ultralong CDR-H3 (stalk and knob) of clone 60H05 from immunised cattle; FR4 of the synthetic VH domain; human IgG1 heavy chain constant regions; as the light chain of m3: bovine VL (V30, VLλ30) deduced from PDB entries that share a CDR-identical light chain; human constant lambda region (CLλ); chimeric IgG1; also called chimeric bovine × …
For B3, the EC50 in test [1] worked out at 2.6 nM. For the same molecule, in test [2], the “ADCC EC50 killing” value came out at 0.0164 nM and the “ADCC mean max killing of A431 cells (normalized to Cetuximab)” value stood at 105%.

B4: 60F06 IgG (antibody)
VH: QVQLRESGPSLVKPSQTLSLTCTASGFSLSDKAVGWVRQAPGKALEWLGGIDTGGSTGYNPGLKSRLSITKDNSKSQVSLSVSSVTTEDSATYYCTTVHQRTEKIAKCPDGYSDARHCRDGCDCFGWDCFRSGAWAECYYEVYTYVHTYEHHVDAWGQGLLVTVSS
VL: EAVLNQPSSVSGSLGQRVSITCSGSSSNVGNGYVSWYQLIPGSAPRTLIYGDTSRASGVPDRFSGSRSGNTATLTISSLQAEDEADYFCASAEDSSSNAVFGSGTTLTVL
notes: synthetic bovine IGHV1-7 (VHBUL) scaffold, FR1 to FR3; ultralong CDR-H3 (stalk and knob) of clone 60F06 from immunised cattle; FR4 of the synthetic VH domain; human IgG1 heavy chain constant regions; as the light chain of m3: bovine VL (V30, VLλ30) deduced from PDB entries that share a CDR-identical light chain; human constant lambda region (CLλ); chimeric IgG1; also called chimeric bovine × …
B4: the EC50 in test [1] was 3 nM. Further, in test [2], the “ADCC EC50 killing” value was 0.0048 nM and the “ADCC mean max killing of A431 cells (normalized to Cetuximab)” value was determined as 108%.

B5: 60D01 IgG (antibody)
VH: QVQLRESGPSLVKPSQTLSLTCTASGFSLSDKAVGWVRQAPGKALEWLGGIDTGGSTGYNPGLKSRLSITKDNSKSQVSLSVSSVTTEDSATYYCTTVHQETTKTASCPDGYAEHFGRGWGYWGCGGCDCCQENGAGGGWGNCGLYSTSYTYEHHIDAWGQGLLVTVSS
VL: EAVLNQPSSVSGSLGQRVSITCSGSSSNVGNGYVSWYQLIPGSAPRTLIYGDTSRASGVPDRFSGSRSGNTATLTISSLQAEDEADYFCASAEDSSSNAVFGSGTTLTVL
notes: synthetic bovine IGHV1-7 (VHBUL) scaffold, FR1 to FR3; ultralong CDR-H3 (stalk and knob) of clone 60D01 from immunised cattle; FR4 of the synthetic VH domain; human IgG1 heavy chain constant regions; as the light chain of m3: bovine VL (V30, VLλ30) deduced from PDB entries that share a CDR-identical light chain; human constant lambda region (CLλ); chimeric IgG1; also called chimeric bovine × …
Regarding B5, the EC50 in test [1] came to 1.3 nM. Also, in test [2], the “ADCC EC50 killing” value came to 0.606 nM and the “ADCC mean max killing of A431 cells (normalized to Cetuximab)” value is 76.3%.

B6: 60C08 IgG (antibody)
VH: QVQLRESGPSLVKPSQTLSLTCTASGFSLSDKAVGWVRQAPGKALEWLGGIDTGGSTGYNPGLKSRLSITKDNSKSQVSLSVSSVTTEDSATYYCTTVHQKTIETTQKTCPDGYFYADTCWAYSCRCRDCDCCRSSGGCTYSRDSHTATYEWHVDAWGQGLLVTVSS
VL: EAVLNQPSSVSGSLGQRVSITCSGSSSNVGNGYVSWYQLIPGSAPRTLIYGDTSRASGVPDRFSGSRSGNTATLTISSLQAEDEADYFCASAEDSSSNAVFGSGTTLTVL
notes: synthetic bovine IGHV1-7 (VHBUL) scaffold, FR1 to FR3; ultralong CDR-H3 (stalk and knob) of clone 60C08 from immunised cattle; FR4 of the synthetic VH domain; human IgG1 heavy chain constant regions; as the light chain of m3: bovine VL (V30, VLλ30) deduced from PDB entries that share a CDR-identical light chain; human constant lambda region (CLλ); chimeric IgG1; also called chimeric bovine × …
B6: the EC50 in test [1] stood at 0.9 nM. In test [2], the “ADCC EC50 killing” value turned out to be 0.0587 nM and the “ADCC mean max killing of A431 cells (normalized to Cetuximab)” value stood at 92.1%.
